Literature values in paper PMC11061240.
Read-outs that look alike come from different tables or passages of the source.

Key:
FGL1 [1] = target: FGL1 (UniProt Q08830); test: BLI
[2] = target: α-synuclein preformed fibrils (UniProt P37840)
FGL1 [3] = target: FGL1 (UniProt Q08830)

UniProt Q08830, sequence (Q08830 23-312): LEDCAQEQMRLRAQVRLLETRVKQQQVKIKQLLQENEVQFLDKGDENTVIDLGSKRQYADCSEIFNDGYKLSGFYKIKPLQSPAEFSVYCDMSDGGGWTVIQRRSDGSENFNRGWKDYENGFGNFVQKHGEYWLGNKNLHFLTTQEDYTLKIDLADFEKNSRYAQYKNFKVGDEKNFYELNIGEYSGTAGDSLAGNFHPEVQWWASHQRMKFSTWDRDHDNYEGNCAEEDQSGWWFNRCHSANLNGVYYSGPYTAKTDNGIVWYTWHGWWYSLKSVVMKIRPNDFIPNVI

Substance | Kd (FGL1 [1]) | Kd [2] | Kd (FGL1 [3])
LAG3 ECD (from UniProt Q61790) | 1.5 nM | – | –
LAG3 (from UniProt P18627) | – | 80 nM | 7000 nM
